In patent publication US20140107043A1 (INSTITUT PASTEUR, published 2014):
Where no end group is shown, it is not given here. [ ]: non-standard residue; d: D form. Phe(4-CH2COOH) = N[C@@H](Cc1ccc(CC(=O)O)cc1)C(=O)O; GABA = NCCCC(=O)O

Columns and labels:
Experiment in all cases: cell-based or functional assay
[1] = molecular target: envelope gp120 of HIV-1-LAI (X4-tropic strain), on virus (HIV-1 strain LAI, UniProt P03377 33-516, limits assumed)
[2] = molecular target: envelope gp120 of HIV-1/Ba-L (R5-tropic strain), on virus (HIV-1 strain Ba-L)
[3] = molecular target: envelope gp120 of HIV-1 92UG029 (clade A, X4), on virus (HIV-1 strain 92UG029)
[4] = molecular target: envelope gp120 of HIV-1 SF162 (clade B, R5), on virus (HIV-1 strain SF162, UniProt P19550 32-502)
[5] = molecular target: envelope gp120 of HIV-1 92US723 (clade B, R5/X4), on virus (HIV-1 strain 92US723)
[6] = molecular target: envelope gp120 of HIV-1 96USHIPS4 (clade B, R5/X4), on virus (HIV-1 strain 96USHIPS4)
[7] = molecular target: envelope gp120 of HIV-1 92HT599 (clade B, X4), on virus (HIV-1 strain 92HT599)
[8] = molecular target: envelope gp120 of HIV-1 98IN017 (clade C, X4), on virus (HIV-1 strain 98IN017)

B1: P3Y (H-gamma-Abu-S-Y-D-Y-S-Y-D-Y-S-Y-D-Y-S-OH) (peptide)
peptide: SYDYSYDYSYDYS
modifications: N-terminal gamma-aminobutyric acid (NH2-(CH2)3-CO-)
> 500 nM: ED50, HIV-1 replication in PBMC [1] | ED70, HIV-1 replication in PBMC [1] | ED90, HIV-1 replication in PBMC [1] | ED50, HIV-1 replication in PBMC [2] | ED70, HIV-1 replication in PBMC [2] | ED90, HIV-1 replication in PBMC [2]

B2: P3YSO3 (H-gamma-Abu-S-YSO3-D-YSO3-S-YSO3-D-YSO3-S-YSO3-D-YSO3-S-OH) (peptide)
peptide: SXDXSXDXSXDXS
modifications: N-terminal gamma-aminobutyric acid (NH2-(CH2)3-CO-); sulfotyrosine (YSO3) at the six X positions of S-X-D-X-S-X-D-X-S-X-D-X-S
> 500 nM: ED50, HIV-1 replication in PBMC [3] | ED70, HIV-1 replication in PBMC [3] | ED90, HIV-1 replication in PBMC [3] | ED50, HIV-1 replication in PBMC [4] | ED70, HIV-1 replication in PBMC [4] | ED90, HIV-1 replication in PBMC [4] | ED50, HIV-1 replication in PBMC [5] | ED70, HIV-1 replication in PBMC [5] | ED90, HIV-1 replication in PBMC [5] | ED50, HIV-1 replication in PBMC [6] | ED70, HIV-1 replication in PBMC [6] | ED90, HIV-1 replication in PBMC [6] | ED50, HIV-1 replication in PBMC [7] | ED70, HIV-1 replication in PBMC [7] | ED90, HIV-1 replication in PBMC [7] | ED50, HIV-1 replication in PBMC [8] | ED70, HIV-1 replication in PBMC [8] | ED90, HIV-1 replication in PBMC [8]

B3: P3pF (H-gamma-Abu-S-pF-D-pF-S-pF-D-pF-S-pF-D-pF-S-OH) (peptide)
peptide: [GABA]S[Phe(4-CH2COOH)]D[Phe(4-CH2COOH)]S[Phe(4-CH2COOH)]D[Phe(4-CH2COOH)]S[Phe(4-CH2COOH)]D[Phe(4-CH2COOH)]S-OH
modifications: N-terminus assumed
SMILES: NCCCC(=O)N[C@@H](CO)C(=O)N[C@@H](Cc1ccc(CC(=O)O)cc1)C(=O)N[C@@H](CC(=O)O)C(=O)N[C@@H](Cc1ccc(CC(=O)O)cc1)C(=O)N[C@@H](CO)C(=O)N[C@@H](Cc1ccc(CC(=O)O)cc1)C(=O)N[C@@H](CC(=O)O)C(=O)N[C@@H](Cc1ccc(CC(=O)O)cc1)C(=O)N[C@@H](CO)C(=O)N[C@@H](Cc1ccc(CC(=O)O)cc1)C(=O)N[C@@H](CC(=O)O)C(=O)N[C@@H](Cc1ccc(CC(=O)O)cc1)C(=O)N[C@@H](CO)C(=O)O
> 500 nM: ED50, HIV-1 replication in PBMC [1] | ED70, HIV-1 replication in PBMC [1] | ED90, HIV-1 replication in PBMC [1] | ED50, HIV-1 replication in PBMC [2] | ED70, HIV-1 replication in PBMC [2] | ED90, HIV-1 replication in PBMC [2]

B4: E13 (H-gamma-Abu-(Glu)13-OH) (peptide)
peptide: EEEEEEEEEEEEE
modifications: N-terminal gamma-aminobutyric acid (NH2-(CH2)3-CO-)
> 500 nM: ED50, HIV-1 replication in PBMC [1] | ED70, HIV-1 replication in PBMC [1] | ED90, HIV-1 replication in PBMC [1] | ED50, HIV-1 replication in PBMC [2] | ED70, HIV-1 replication in PBMC [2] | ED90, HIV-1 replication in PBMC [2]
